Where two headings read alike, the source gives them in different places.
How the values were obtained:
[1] = Phase 3 Study: daratumumab serum pharmacokinetics; format: in vivo, human; conditions: daratumumab 16 mg/kg in D-VMP
Text: (§1) Clinical pharmacology information provided herein focuses on data from subjects with evaluable pharmacokinetic data treated with D-VMP in the Phase 3 Study (n=342), and supportive information derived from the Phase 1b Study in the cohort of subjects treated with D-VMP having evaluable pharmacokinetic data (n=11). In addition, an updated population pharmacokinetics (PPK) analysis including data from the Phase 3 and Phase 1b Studies and exposure-response (efficacy and safety) analyses including data from Phase 3 Study were conducted.

[2] = in vivo
Text: The first subject in this cohort started treatment with D-VMP. Subjects in the D-VMP cohort of the Phase 1b Study received treatment for a maximum of 9 cycles. Long-term follow-up for this cohort continued until death, loss to follow up, withdrawal of consent, or study end, whichever occurred first. The primary objective for the Phase 1b Study was to evaluate safety and tolerability of the combination regimen. Efficacy assessments (primary efficacy endpoint, overall response rate (ORR)) were performed per International Myeloma Working Group (IMWG) guidelines (Kumar S, et al. Lancet Oncol. 2016;17(8):e328-e346, hereby incorporated by reference in its entirety), and a computerized, validated algorithm as described above was utilized for determining response based on IMWG criteria.
as §1

[3] = Pooled infusion-related reaction analysis, 1,166 subjects treated with daratumumab 16 mg/kg IV; format: in vivo, human
[4] = in vivo; remark: listed apart in the source
[5] = cited from earlier work
[6] = mean±SD, cited from earlier work

Q: Which results are given for daratumumab?
A: mean end-of-infusion concentration following the first dose [1]: 266.7 µg/mL; mean end-of-infusion concentration following the first dose [2]: 332.2 µg/mL; Grade 4 IRRs ([3]; 2 of 1,166 subjects): 0.2%; incidence of any grade IRR ([3]; first infusion, pooled 1,166 subjects): 40%; incidence of infusion modification due to IRRs ([3]; pooled): 37%; incidence of any grade IRR ([3]; second infusion, pooled): 2%; subjects with a Grade 3 IRR ([3]; second or subsequent infusion, pooled): < 1%; incidence of any grade IRR ([3]; subsequent infusions, pooled): 4%; model-derived half-life associated with the CL ([4]; human): approximately 22.1±9.7 days; estimated Vi value [4]: approached plasma volume; time to apparent steady state [4]: approximately 5 months; mean maximum trough concentration ([5]; after 8 weekly doses, monotherapy): 573.5 µg/mL; mean end-of-infusion concentration following the first dose ([5]; daratumumab monotherapy, Phase 2 study): 312.5 µg/mL; increase in daratumumab compared with the first dose ([5]; end of 8 weekly doses of monotherapy): 2.9 fold; half-life ([6]; monotherapy study data): 18 ± 9 days; half-life ([6]; previous combination therapy study data): 23.3 ± 11.8 days

Reference: patent US20220062415A1, “Methods of Treating Multiple Myeloma” (Janssen Biotech, Inc., priority 2018, published 2022)
